One block for each binder: values may come before it.
What was measured:
[1] = target: His-tagged NanoLuc-PP1α-HaloTag sensor (PP1-WT) (human, UniProt P62136 1-330, NanoBRET 618 ligand on the HaloTag); experiment: FRET or BRET
LgBiT-PP1α^WT = LgBiT-PP1α^WT (human, UniProt P62136 1-330); experiment: split reporter
LgBiT-PP1α^ΔC = LgBiT-PP1α^ΔC (human, UniProt P62136 1-298); experiment: split reporter
Chain of LgBiT-PP1α^ΔC (P62136 1-298, stated change not applied): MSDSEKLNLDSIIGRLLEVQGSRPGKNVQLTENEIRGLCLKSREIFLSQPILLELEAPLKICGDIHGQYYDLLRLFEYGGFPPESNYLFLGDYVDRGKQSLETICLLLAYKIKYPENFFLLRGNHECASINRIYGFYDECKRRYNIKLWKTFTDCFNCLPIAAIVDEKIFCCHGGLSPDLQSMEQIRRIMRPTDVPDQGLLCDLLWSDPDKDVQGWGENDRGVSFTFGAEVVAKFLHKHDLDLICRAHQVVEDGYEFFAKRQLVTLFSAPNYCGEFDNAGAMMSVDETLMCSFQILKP

Chain of His-tagged NanoLuc-PP1α-HaloTag sensor (PP1-WT) (P62136 whole entry): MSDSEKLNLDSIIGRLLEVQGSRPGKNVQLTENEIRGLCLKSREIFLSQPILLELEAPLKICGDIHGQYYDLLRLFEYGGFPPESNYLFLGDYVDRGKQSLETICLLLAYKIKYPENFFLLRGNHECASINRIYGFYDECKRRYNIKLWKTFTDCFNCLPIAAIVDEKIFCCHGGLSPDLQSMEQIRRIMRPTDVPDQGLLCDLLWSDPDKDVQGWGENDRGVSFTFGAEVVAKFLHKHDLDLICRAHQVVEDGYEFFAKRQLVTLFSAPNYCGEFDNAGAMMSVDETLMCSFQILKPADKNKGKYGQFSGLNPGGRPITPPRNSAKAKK
Chain of LgBiT-PP1α^WT (P62136 whole entry): as above

binding result [1]: binds
binding result (LgBiT-PP1α^WT): binds
binding result (LgBiT-PP1α^ΔC): binds
B1: HIS-R2-WT (natural protein)
chain: MAASTASHRPIKGILKNKTSTTSSMVASAEQPRGNVDEELSKKSQKWDEMNILATYHPADKDYGLMKIDEPSTPYHSMMGDDEDACSDTEATEAMAPDILARKLAAAEGLEPKYRIQEQESSGEEDSDLSPEEREKKRQFEMKRKLHYNEGLNIKLARQLISKDLHDDDEDEEMLETADGESMNTEESNQGSTPSDQQQNKLRSS

binding result [1]: binds
B2: HIS-ASPP1-(867–1090) (domain or fragment)
chain: RTNLKKPNSERTGHGLRVRFNPLALLLDASLEGEFDLVQRIIYEVEDPSKPNDEGITPLHNAVCAGHHHIVKFLLDFGVNVNAADSDGWTPLHCAASCNSVHLCKQLVESGAAIFASTISDIETAADKCEEMEEGYIQCSQFLYGVQEKLGVMNKGVAYALWDYEAQNSDELSFHEGDALTILRRKDESETEWWWARLGDREGYVPKNLLGLYPRIKPRQRTLA
